Measured values: US20190077860A1 (EISAI R AND D MANAGEMENT, published 2019)

T1: human EphA1 extracellular region-SEAP-His protein (human, UniProt P21709 26-547)
T1 construct: extracellular domain; also called hEphA1-SEAP-His
T1 sequence (looked up): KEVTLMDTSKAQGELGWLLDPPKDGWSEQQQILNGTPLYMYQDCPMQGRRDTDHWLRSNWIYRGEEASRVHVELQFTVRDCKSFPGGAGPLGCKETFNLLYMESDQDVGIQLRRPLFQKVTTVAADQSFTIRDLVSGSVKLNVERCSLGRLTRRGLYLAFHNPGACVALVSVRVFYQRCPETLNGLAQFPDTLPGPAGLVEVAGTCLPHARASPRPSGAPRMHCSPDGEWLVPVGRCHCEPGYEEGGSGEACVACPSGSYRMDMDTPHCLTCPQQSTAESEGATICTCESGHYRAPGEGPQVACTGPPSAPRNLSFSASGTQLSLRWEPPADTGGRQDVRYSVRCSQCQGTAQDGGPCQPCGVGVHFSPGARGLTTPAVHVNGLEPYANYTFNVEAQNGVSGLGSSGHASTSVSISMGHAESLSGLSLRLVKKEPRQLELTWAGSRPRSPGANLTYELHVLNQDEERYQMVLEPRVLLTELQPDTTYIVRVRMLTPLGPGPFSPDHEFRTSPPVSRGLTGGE

T2: human EphA3 extracellular region-SEAP-His protein (human, UniProt P29320 21-541)
T2 construct: extracellular domain; also called hEphA3-SEAP-His
T2 sequence (looked up): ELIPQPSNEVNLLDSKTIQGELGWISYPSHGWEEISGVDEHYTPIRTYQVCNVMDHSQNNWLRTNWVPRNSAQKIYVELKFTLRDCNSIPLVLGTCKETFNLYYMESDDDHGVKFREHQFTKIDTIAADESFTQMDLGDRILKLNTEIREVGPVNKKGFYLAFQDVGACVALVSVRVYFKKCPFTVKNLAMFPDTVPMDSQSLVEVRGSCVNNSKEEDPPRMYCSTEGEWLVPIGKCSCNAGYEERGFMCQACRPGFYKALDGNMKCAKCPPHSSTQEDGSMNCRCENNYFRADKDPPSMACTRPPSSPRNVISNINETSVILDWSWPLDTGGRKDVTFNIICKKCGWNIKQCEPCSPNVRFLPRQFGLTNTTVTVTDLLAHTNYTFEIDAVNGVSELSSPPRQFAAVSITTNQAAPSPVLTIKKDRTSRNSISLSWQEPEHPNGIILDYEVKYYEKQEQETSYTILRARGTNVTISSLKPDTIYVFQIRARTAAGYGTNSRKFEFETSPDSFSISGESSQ

T3: human EphA6 extracellular region-SEAP-His protein (human, UniProt Q9UF33 23-550)
T3 construct: extracellular domain; also called hEphA6-SEAP-His
T3 sequence (looked up): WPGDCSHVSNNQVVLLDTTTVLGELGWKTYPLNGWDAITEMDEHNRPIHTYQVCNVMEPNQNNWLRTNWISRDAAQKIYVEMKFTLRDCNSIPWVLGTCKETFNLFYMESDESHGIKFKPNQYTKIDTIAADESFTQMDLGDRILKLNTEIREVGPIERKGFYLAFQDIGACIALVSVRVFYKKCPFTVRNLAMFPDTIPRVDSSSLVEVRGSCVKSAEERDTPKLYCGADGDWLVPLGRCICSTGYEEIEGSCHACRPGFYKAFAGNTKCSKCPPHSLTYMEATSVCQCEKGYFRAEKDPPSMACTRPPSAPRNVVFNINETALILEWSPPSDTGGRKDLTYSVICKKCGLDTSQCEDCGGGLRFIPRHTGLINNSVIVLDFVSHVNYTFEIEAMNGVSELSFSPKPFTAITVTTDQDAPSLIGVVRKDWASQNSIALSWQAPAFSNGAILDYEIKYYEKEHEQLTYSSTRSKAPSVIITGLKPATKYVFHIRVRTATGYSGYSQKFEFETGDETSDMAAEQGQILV

T4: human EphB1 extracellular region-SEAP-His protein (human, UniProt P54762 18-540)
T4 construct: extracellular domain; also called hEphB1-SEAP-His
T4 sequence (looked up): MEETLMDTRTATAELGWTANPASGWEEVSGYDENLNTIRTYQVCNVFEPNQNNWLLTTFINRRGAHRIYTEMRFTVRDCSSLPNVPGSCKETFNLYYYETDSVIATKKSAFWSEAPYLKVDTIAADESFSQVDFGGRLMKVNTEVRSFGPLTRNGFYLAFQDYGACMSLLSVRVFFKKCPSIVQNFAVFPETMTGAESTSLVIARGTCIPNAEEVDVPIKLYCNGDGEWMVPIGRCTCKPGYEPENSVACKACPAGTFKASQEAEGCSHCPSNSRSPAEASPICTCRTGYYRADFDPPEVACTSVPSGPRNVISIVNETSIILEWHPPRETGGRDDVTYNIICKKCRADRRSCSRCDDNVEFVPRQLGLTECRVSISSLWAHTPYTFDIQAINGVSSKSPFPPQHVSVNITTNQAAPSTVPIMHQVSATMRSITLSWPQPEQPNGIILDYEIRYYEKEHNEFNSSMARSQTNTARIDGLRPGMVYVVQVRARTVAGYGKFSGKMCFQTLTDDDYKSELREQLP


Columns and labels:
Test in all cases: ELISA
SEAP-His = SEAP-His (UniProt P05187 23-511)
SEAP-His, sequence (P05187 23-511): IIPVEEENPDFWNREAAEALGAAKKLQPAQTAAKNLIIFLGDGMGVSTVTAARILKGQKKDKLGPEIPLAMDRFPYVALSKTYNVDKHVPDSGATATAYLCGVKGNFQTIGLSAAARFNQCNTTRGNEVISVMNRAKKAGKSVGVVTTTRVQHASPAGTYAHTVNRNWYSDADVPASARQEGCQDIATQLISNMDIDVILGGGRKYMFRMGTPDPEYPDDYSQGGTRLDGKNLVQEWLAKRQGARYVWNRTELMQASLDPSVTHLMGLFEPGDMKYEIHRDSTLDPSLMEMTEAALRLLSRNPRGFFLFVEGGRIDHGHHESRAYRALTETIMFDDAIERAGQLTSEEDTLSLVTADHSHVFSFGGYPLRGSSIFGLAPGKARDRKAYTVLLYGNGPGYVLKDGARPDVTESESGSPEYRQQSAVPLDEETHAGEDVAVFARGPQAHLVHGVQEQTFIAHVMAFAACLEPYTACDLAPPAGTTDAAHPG

[1] = target: T1, human EphA1 extracellular …
[2] = target: T2, human EphA3 extracellular …
[3] = target: T3, human EphA6 extracellular …
[4] = target: T4, human EphB1 extracellular …
[5] = target: T5, human EphA4 extracellular region-SEAP-His protein (human, UniProt P54764 20-547)
T5 construct: also called hEphA4-SEAP-His
T5 sequence (P54764 20-547): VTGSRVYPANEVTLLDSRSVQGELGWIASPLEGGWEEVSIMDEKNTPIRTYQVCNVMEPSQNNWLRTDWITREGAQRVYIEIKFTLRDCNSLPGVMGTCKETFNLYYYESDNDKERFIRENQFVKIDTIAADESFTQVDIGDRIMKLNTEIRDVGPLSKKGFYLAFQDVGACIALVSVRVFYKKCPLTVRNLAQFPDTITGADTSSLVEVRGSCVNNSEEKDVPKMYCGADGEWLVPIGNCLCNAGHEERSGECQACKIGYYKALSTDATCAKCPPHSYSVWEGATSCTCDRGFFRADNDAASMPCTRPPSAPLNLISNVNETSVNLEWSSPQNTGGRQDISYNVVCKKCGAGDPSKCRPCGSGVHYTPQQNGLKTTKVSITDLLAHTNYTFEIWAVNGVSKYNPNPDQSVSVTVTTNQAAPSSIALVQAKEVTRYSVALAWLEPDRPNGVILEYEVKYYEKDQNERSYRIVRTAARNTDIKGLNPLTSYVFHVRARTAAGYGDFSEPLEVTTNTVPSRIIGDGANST

A450 as % of hEphA4-SEAP-His (SEAP-His)	A450 as % of hEphA4-SEAP-His [1]	A450 as % of hEphA4-SEAP-His [2]	A450 as % of hEphA4-SEAP-His [3]	A450 as % of hEphA4-SEAP-His [4]	A450 as % of hEphA4-SEAP-His [5]	Binder
5.1%	5.2%	4.9%	10.2%	5.1%	100%	humanized antibody No. 138 (antibody, human IgG2, human Ig kappa; also called L1-4/HA4) heavy: QIQLVQSGSELKKPGASVKVSCKASGYTFTDYSMHWVRQAPGQGLKWMGWINTETGEPTYAQGFTGRFVFSLDTSVSTAYLQISSLKAEDTAVYYCARIPLYYYGSRYWYFDVWGQGTTVTVSSASTKGPSVFPLAPSSRSTSESTAALGCLVKDYFPEPVTVSWNSGALTSGVHTFPAVLQSSGLYSLSSVVTVPSSNFGTQTYTCNVDHKPSNTKVDKTVERKSCVECPPCPAPPAAAPSVFLFPPKPKDTLMISRTPEVTCVVVDVSHEDPEVQFNWYVDGVEVHNAKTKPREEQFNSTFRVVSVLTVVHQDWLNGKEYKCKVSNKGLPAPIEKTISKTKGQPREPQVYTLPPSREEMTKNQVSLTCLVKGFYPSDIAVEWESNGQPENNYKTTPPMLDSDGSFFLYSKLTVDKSRWQQGNVFSCSVMHEALHNHYTQKSLSLSPG light: DIQMTQSPSSLSASVGDRVTITCRASENIYRNLAWYQQKPGKAPKLLVYAATNLADGVPSRFSGSGSGTDYTLTISSLQPEDFATYYCQHFWGTPWTFGQGTKVEIKRTVAAPSVFIFPPSDEQLKSGTASVVCLLNNFYPREAKVQWKVDNALQSGNSQESVTEQDSKDSTYSLSSTLTLSKADYEKHKVYACEVTHQGLSSPVTKSFNRGEC
5.7%	5.7%	5.9%	10%	5.5%	100%	humanized antibody No. 139 (antibody, human IgG2, human Ig kappa; also called L1-4/HA1) heavy: QVQLVQSGSELKKPGASVKVSCKASGYTFTDYSMHWVRQAPGQGLEWMGWINTETGEPTYAQGFTGRFVFSLDTSVSTAYLQISSLKAEDTAVYYCARIPLYYYGSRYWYFDVWGQGTTVTVSSASTKGPSVFPLAPSSRSTSESTAALGCLVKDYFPEPVTVSWNSGALTSGVHTFPAVLQSSGLYSLSSVVTVPSSNFGTQTYTCNVDHKPSNTKVDKTVERKSCVECPPCPAPPAAAPSVFLFPPKPKDTLMISRTPEVTCVVVDVSHEDPEVQFNWYVDGVEVHNAKTKPREEQFNSTFRVVSVLTVVHQDWLNGKEYKCKVSNKGLPAPIEKTISKTKGQPREPQVYTLPPSREEMTKNQVSLTCLVKGFYPSDIAVEWESNGQPENNYKTTPPMLDSDGSFFLYSKLTVDKSRWQQGNVFSCSVMHEALHNHYTQKSLSLSPG light: DIQMTQSPSSLSASVGDRVTITCRASENIYRNLAWYQQKPGKAPKLLVYAATNLADGVPSRFSGSGSGTDYTLTISSLQPEDFATYYCQHFWGTPWTFGQGTKVEIKRTVAAPSVFIFPPSDEQLKSGTASVVCLLNNFYPREAKVQWKVDNALQSGNSQESVTEQDSKDSTYSLSSTLTLSKADYEKHKVYACEVTHQGLSSPVTKSFNRGEC

More lines, now with the values behind:

Binder	A450 as % of hEphA4-SEAP-His (SEAP-His)	A450 as % of hEphA4-SEAP-His [1]	A450 as % of hEphA4-SEAP-His [2]	A450 as % of hEphA4-SEAP-His [3]	A450 as % of hEphA4-SEAP-His [4]	A450 as % of hEphA4-SEAP-His [5]
humanized antibody No. 140 (antibody, human IgG2, human Ig kappa; also called L1-4/HA2) heavy: QVQLVQSGSELKKPGASVKVSCKASGYTFTDYSMHWVRQAPGQGLKWMGWINTETGEPTYAQGFTGRFVFSLDTSVSTAYLQISSLKAEDTAVYYCARIPLYYYGSRYWYFDVWGQGTTVTVSSASTKGPSVFPLAPSSRSTSESTAALGCLVKDYFPEPVTVSWNSGALTSGVHTFPAVLQSSGLYSLSSVVTVPSSNFGTQTYTCNVDHKPSNTKVDKTVERKSCVECPPCPAPPAAAPSVFLFPPKPKDTLMISRTPEVTCVVVDVSHEDPEVQFNWYVDGVEVHNAKTKPREEQFNSTFRVVSVLTVVHQDWLNGKEYKCKVSNKGLPAPIEKTISKTKGQPREPQVYTLPPSREEMTKNQVSLTCLVKGFYPSDIAVEWESNGQPENNYKTTPPMLDSDGSFFLYSKLTVDKSRWQQGNVFSCSVMHEALHNHYTQKSLSLSPG light: DIQMTQSPSSLSASVGDRVTITCRASENIYRNLAWYQQKPGKAPKLLVYAATNLADGVPSRFSGSGSGTDYTLTISSLQPEDFATYYCQHFWGTPWTFGQGTKVEIKRTVAAPSVFIFPPSDEQLKSGTASVVCLLNNFYPREAKVQWKVDNALQSGNSQESVTEQDSKDSTYSLSSTLTLSKADYEKHKVYACEVTHQGLSSPVTKSFNRGEC	5.4%	5.5%	5.5%	10.8%	5.3%	100%
humanized antibody No. 141 (antibody, human IgG2, human Ig kappa; also called L1-4/HK1) heavy: QVQLVQSGSELKKPGASVKVSCKASGYTFTDYSMHWVRQAPGQGLEWMGWINTETGEPTYADDFKGRFVFSLDTSVSTAYLQISSLKAEDTAVYYCARIPLYYYGSRYWYFDVWGQGTTVTVSSASTKGPSVFPLAPSSRSTSESTAALGCLVKDYFPEPVTVSWNSGALTSGVHTFPAVLQSSGLYSLSSVVTVPSSNFGTQTYTCNVDHKPSNTKVDKTVERKSCVECPPCPAPPAAAPSVFLFPPKPKDTLMISRTPEVTCVVVDVSHEDPEVQFNWYVDGVEVHNAKTKPREEQFNSTFRVVSVLTVVHQDWLNGKEYKCKVSNKGLPAPIEKTISKTKGQPREPQVYTLPPSREEMTKNQVSLTCLVKGFYPSDIAVEWESNGQPENNYKTTPPMLDSDGSFFLYSKLTVDKSRWQQGNVFSCSVMHEALHNHYTQKSLSLSPG light: DIQMTQSPSSLSASVGDRVTITCRASENIYRNLAWYQQKPGKAPKLLVYAATNLADGVPSRFSGSGSGTDYTLTISSLQPEDFATYYCQHFWGTPWTFGQGTKVEIKRTVAAPSVFIFPPSDEQLKSGTASVVCLLNNFYPREAKVQWKVDNALQSGNSQESVTEQDSKDSTYSLSSTLTLSKADYEKHKVYACEVTHQGLSSPVTKSFNRGEC	5%	5.3%	5.3%	9%	5.4%	100%
